± gives the uncertainty stated by the source.
B1: Zinc finger homeobox protein 4, residues 2086 to 2141; numbered along this chain, Q86UP3 (parent)
chain: RPRTRITDDQLKILRAYFDINNSPSEEQIQEMAEKSGLSQKVIKHWFRNTLFKERQ
B2: Ubiquitin-protein ligase residues 30 to 86; numbered along this chain, Q05086 (parent)
chain: KHLIERYYHQLTEGCGNEACTNEFCASCPTFLRMDNNAAAIKALELYKINAKLCDPH

Variants of: B1
Experiment: abundance fitness (aPCA) (normalised: wild type 0, dead -1); higher = more abundant; growth selection in yeast, the domain comes from the species named
Conditions: Homo sapiens

Abundance fitness: each site, then its substitutions
P2: C -0.844 ± 0.12; L -0.047 ± 0.088; M 0.143 ± 0.14; H 0.187 ± 0.14; F 0.157 ± 0.13; D 0.033 ± 0.11; V 0.067 ± 0.081; S 0.057 ± 0.078; A -0.134 ± 0.097; G 0.048 ± 0.077; T 0.049 ± 0.1; I -0.067 ± 0.11; W -1.01 ± 0.15; Q 0.173 ± 0.13; K 0.197 ± 0.15; R -0.083 ± 0.08; Y 0.022 ± 0.16; N 0.18 ± 0.16
R1: D 0.188 ± 0.24; C -0.033 ± 0.14; H -0.211 ± 0.25; V -0.21 ± 0.23; M -0.634 ± 0.22; A -0.327 ± 0.37; P -0.512 ± 0.22; L -0.101 ± 0.2; K -0.891 ± 0.33; F -0.327 ± 0.27; T -0.131 ± 0.12; N 0.247 ± 0.12; S -0.284 ± 0.096; Y -0.157 ± 0.19; W -1.13 ± 0.23; I -0.116 ± 0.12
R3: N -0.033 ± 0.12; E 0.054 ± 0.12; T 0.102 ± 0.091; C -0.343 ± 0.097; Q 0.201 ± 0.13; F -0.15 ± 0.095; Y 0.026 ± 0.12; V -0.037 ± 0.068; P -0.096 ± 0.12; K -0.011 ± 0.16; S 0.071 ± 0.079; H 0.042 ± 0.13; I -0.136 ± 0.1; M 0.216 ± 0.11; D 0.015 ± 0.1; W -0.569 ± 0.09; G 0.099 ± 0.064; L -0.024 ± 0.083
T4: W -1.16 ± 0.16; H 0.01 ± 0.17; E -0.096 ± 0.11; I -0.048 ± 0.11; L -0.011 ± 0.081; P -0.139 ± 0.12; Q -0.284 ± 0.13; R -0.413 ± 0.076; S -0.198 ± 0.077; A -0.271 ± 0.084; N 0.123 ± 0.13; V -0.116 ± 0.078; C -0.965 ± 0.24; K -0.329 ± 0.15; F 0.036 ± 0.12; M 0.224 ± 0.11
R5: C 0.136 ± 0.08; D 0.198 ± 0.081; V 0.022 ± 0.067; G -0.037 ± 0.069; I 0.067 ± 0.072; M 0.16 ± 0.094; P 0.172 ± 0.072; L 0.207 ± 0.066; Q 0.183 ± 0.084; Y 0.082 ± 0.073; E 0.163 ± 0.11; W -0.184 ± 0.1; N 0.184 ± 0.076; F 0.058 ± 0.075; T 0.182 ± 0.068; K 0.191 ± 0.1
D9: S 0.084 ± 0.065; R -0.134 ± 0.078; K -0.087 ± 0.09; H 0.044 ± 0.074; A 0.059 ± 0.074; Q -0.083 ± 0.12; P -0.002 ± 0.07; Y -0.041 ± 0.069; W -0.155 ± 0.11; C -0.011 ± 0.094; E -0.003 ± 0.11; N 0.047 ± 0.069; T 0.165 ± 0.07; V -0.162 ± 0.073; F 0.071 ± 0.076; G -0.14 ± 0.078; L -0.043 ± 0.064; M -0.084 ± 0.091; I -0.026 ± 0.075
D8: W -0.092 ± 0.081; V -0.015 ± 0.069; N -0.28 ± 0.11; F -0.056 ± 0.14; M 0.113 ± 0.088; S 0.023 ± 0.081; E 0.145 ± 0.083; I 0.036 ± 0.14; L -0.127 ± 0.079; C 0.046 ± 0.11; K 0.012 ± 0.098; Q 0.081 ± 0.097; Y -0.238 ± 0.14; P 0.034 ± 0.11; H -0.019 ± 0.16; G -0.004 ± 0.067; A -0.051 ± 0.066; T -0.172 ± 0.1; R -0.183 ± 0.067
T7: S -0.125 ± 0.083; L -0.271 ± 0.079; R -0.054 ± 0.12; V -0.217 ± 0.1; E 0.082 ± 0.19; A 0.02 ± 0.12; P -0.241 ± 0.1; D 0.174 ± 0.14; N -0.038 ± 0.092; Y -0.491 ± 0.093; K -0.344 ± 0.23; W -0.774 ± 0.38; C -0.337 ± 0.14; I -0.288 ± 0.081; Q -0.42 ± 0.17; M 0.038 ± 0.12; F -0.352 ± 0.1; H -0.344 ± 0.096
Q10: C -0.277 ± 0.11; D -0.125 ± 0.12; A -0.461 ± 0.076
I6: F 0.002 ± 0.07; H -0.271 ± 0.071; L 0.006 ± 0.062; C -0.318 ± 0.084; N -0.377 ± 0.084; G -0.381 ± 0.09; Q -0.389 ± 0.11; A -0.069 ± 0.086; Y -0.047 ± 0.08; D -0.148 ± 0.13; E -0.18 ± 0.2; V -0.04 ± 0.077; W -0.553 ± 0.11; P -0.103 ± 0.076; M 0.369 ± 0.094; R -0.596 ± 0.077; K -0.433 ± 0.13; T -0.246 ± 0.074; S -0.245 ± 0.07

Variants of: B2
Experiment: as above
Conditions: Homo sapiens

Abundance fitness, by site and new letter:
N50: Y -0.018 ± 0.16; P -0.041 ± 0.088; Q -0.11 ± 0.097; A 0.004 ± 0.076; S 0.023 ± 0.063; G -0.019 ± 0.048; W -0.31 ± 0.064; D 0.034 ± 0.11; T -0.006 ± 0.11; R -0.033 ± 0.051; V -0.158 ± 0.07; E -0.041 ± 0.096; C -0.057 ± 0.09; L -0.143 ± 0.074; I -0.356 ± 0.1; H -0.05 ± 0.12; K -0.095 ± 0.1
H57: R -0.052 ± 0.11; C 0.175 ± 0.2; A -0.022 ± 0.15; W -0.348 ± 0.23; K -0.092 ± 0.43; Y 0.017 ± 0.074; V 0.173 ± 0.19; Q 0.009 ± 0.22; G 0.013 ± 0.16; D -0.051 ± 0.13; I -0.408 ± 0.43; N 0.104 ± 0.16; E -0.505 ± 0.35; T 0.109 ± 0.16; P -0.006 ± 0.1; F 0.076 ± 0.26; S -0.268 ± 0.14
L53: F -0.048 ± 0.14; S -0.097 ± 0.074; D -0.353 ± 0.12; P -0.23 ± 0.11; E -0.068 ± 0.099; I -0.032 ± 0.15; K -0.071 ± 0.093; W -0.164 ± 0.076; A -0.098 ± 0.075; G -0.199 ± 0.063; H -0.191 ± 0.15; T -0.109 ± 0.081; C -0.14 ± 0.1; Y -0.062 ± 0.16; Q 0.04 ± 0.11; N -0.433 ± 0.17; V -0.056 ± 0.067; M -0.073 ± 0.11
A51: N -0.152 ± 0.13; I -0.45 ± 0.19; E -0.102 ± 0.071; D -0.052 ± 0.085; T -0.02 ± 0.079; F -0.053 ± 0.14; P -0.35 ± 0.1; V -0.082 ± 0.055; Q -0.289 ± 0.099; L -0.463 ± 0.065; K -0.093 ± 0.12; S -0.012 ± 0.062; G -0.075 ± 0.049; Y -0.195 ± 0.15; C -0.151 ± 0.1; H -0.147 ± 0.13; M -0.189 ± 0.099; W -0.029 ± 0.085
L46: I -0.056 ± 0.17; H 0.035 ± 0.11; S -0.095 ± 0.063; E -0.514 ± 0.076; V -0.06 ± 0.066; D -0.389 ± 0.11; A -0.107 ± 0.064; C -0.029 ± 0.11; K -0.754 ± 0.13; M -0.13 ± 0.1; N -0.341 ± 0.15; Y -0.312 ± 0.13; G -0.178 ± 0.057; P -0.528 ± 0.11; F -0.063 ± 0.13; W -0.401 ± 0.073; T -0.278 ± 0.09; Q -0.17 ± 0.081
K48: D 0.009 ± 0.1; M -0.424 ± 0.08; L -0.388 ± 0.061; I -0.607 ± 0.18; P -0.222 ± 0.092; A -0.17 ± 0.059; E -0.058 ± 0.078; N 0.012 ± 0.15; C -0.427 ± 0.096; G -0.188 ± 0.05; S -0.161 ± 0.067; H -0.111 ± 0.15; W -0.357 ± 0.085; R -0.072 ± 0.052; F -0.682 ± 0.13; Q -0.109 ± 0.1; T -0.122 ± 0.079; V -0.455 ± 0.06; Y -0.438 ± 0.14
C54: F -0.448 ± 0.45; S -0.076 ± 0.42; Y -0.94 ± 0.25
D55: L -0.027 ± 0.057; T -0.087 ± 0.085; F -0.06 ± 0.097; N 0.017 ± 0.091; K 0.056 ± 0.084; A -0.043 ± 0.059; C -0.099 ± 0.088; H -0.227 ± 0.11; Y -0.159 ± 0.086; I -0.149 ± 0.098; E -0.017 ± 0.072; V -0.012 ± 0.057; R -0.118 ± 0.066; S -0.059 ± 0.068; P -0.027 ± 0.088; W -0.106 ± 0.074; Q 0.011 ± 0.08; M 0.006 ± 0.088; G -0.018 ± 0.061
K52: S -0.31 ± 0.33; W -0.437 ± 0.32; R -0.052 ± 0.17
I49: L -0.043 ± 0.41; T 0.003 ± 0.31
E45: W -0.372 ± 0.12; S -0.067 ± 0.1; R -0.064 ± 0.1; Y -0.217 ± 0.18; Q -0.129 ± 0.1; N 0.11 ± 0.19; P -0.873 ± 0.27; T -0.288 ± 0.14
P56: L 0.044 ± 0.065; Q -0.068 ± 0.12; K -0.055 ± 0.13; H -0.22 ± 0.11; C -0.041 ± 0.11; F 0.098 ± 0.17; G 0.024 ± 0.069; Y -0.049 ± 0.19; T 0.016 ± 0.11; A -0.035 ± 0.064; S -0.081 ± 0.082; D -0.035 ± 0.11; R 0.023 ± 0.065; W -0.038 ± 0.096
Y47: W -0.085 ± 0.061; K 0.031 ± 0.12; G 0.008 ± 0.047; T 0.073 ± 0.1; S 0.084 ± 0.067; N 0.012 ± 0.14; I -0.094 ± 0.11; H 0.088 ± 0.14; F 0.108 ± 0.13; L 0.027 ± 0.056; V 0.06 ± 0.053; A 0.088 ± 0.059; R 0.05 ± 0.052; C 0.031 ± 0.085; P -0.05 ± 0.092; Q -0.03 ± 0.096

From the Human Domainome abundance scans (Beltran et al. 2025)
